Entries after “also recorded” stand apart in the source; their conditions may differ.
Tests used:
human Kv1.3 [1] = molecular target: T1, human Kv1.3 (Homo sapiens, UniProt P22001); format: cell-based
human Kv1.1 = molecular target: T2, human Kv1.1 (Homo sapiens, UniProt Q09470); format: cell-based; details: read-out: hKv1.1: IC50
T2 construct: expressed in transfected cells; host or cells: HEK293

[2] = test system: T cell proliferation, human PBMCs; test: T cell proliferation (3H-thymidine incorporation) in anti-CD3/anti-CD28 stimulated human PBMCs; format: cell-based; details: antibodies to CD3 and CD28
Text: Inhibition of T cell proliferation following anti-CD3 and anti-CD28 antibody stimulation of PBMCs. PBMC's were previously isolated from normal human donor Leukophoresis packs, purified by density gradient centrifugation (Ficoll Hypaque), cryopreserved in CPZ Cryopreservation Medium Complete (INCELL, MCPZF-100 plus 10% DMSO final). PBMC's were thawed (95% viability), washed, and seeded at 2×10^5 cells per well in culture medium (RPMI medium 1640; GIBCO) supplemented with 10% fetal calf serum, 100 U/ml penicillin, […] streptomycin, 2 mM L-glutamine, 100 μM non-essential amino acids, and 20 μM 2-ME) in 96-well flat-bottom tissue culture plates. Cells were pre-incubated with either anti-human CD32 (FcyRII) blocking antibody (per manufacturers instructions EASY SEP Human Biotin Selection Kit #18553, StemCell Technologies Vancouver, BC) or Fc-L10-ShK (100 nM-0.001 nM final) for 45 min. Fc-L10-ShK (100 nM-0.001 nM final) was then added to the cells containing anti-human CD32 blocking antibody while medium was added to the cells containing Fc-L10-ShK. Both sets were incubated for an additional 45 min before stimulating for 48 hr with aCD3/aCD28 (0.2 ng/ml and 100 ng/ml, respectively). Final assay volume was 200 ul. […] Cells were then harvested onto glass fiber filters and radioactivity was measured in a B-scintillation counter.

CD40L on CD4+ T cells = format: cell-based, human
IL-2R on CD4+ T cells = format: cell-based, human
human Kv1.3 [3] = molecular target: T1, human Kv1.3; test: Immunohistochemistry of peptibody binding to HEK 293 cells overexpressing human Kv1.3; set-up: expressed in transfected cells; details: 5 μg/ml peptibody
Method: Immunohistochemistry analysis of Fc-L10-ShK[1-35] binding to HEK 293 cells overexpressing human Kv1.3. HEK 293 cells overexpressing human Kv1.3 (HEK Kv1.3) were obtained from BioFocus plc (Cambridge, UK) and maintained per manufacturer's recommendation. The parental HEK 293 cell line was used as a control. Cells were plated on Poly-D-Lysine 24 well plates (#35-4414; Becton-Dickinson, Bedford, Mass.) and allowed to grow to approximately 70% confluence. HEK KV1.3 were plated at 0.5×10e5 cells/well in 1 ml/well of medium. HEK 293 cells were plated at a density of 1.5×10e5 cells/well in 1 ml/well of medium. Before staining, cells were fixed with formalin (Sigma HT50-1-1 Formalin solution, diluted 1:1 with PBS/0.5% BSA before use) by removing cell growth medium, adding 0.2 ml/well formalin solution and incubating at room temperature for ten minutes. Cells were stained by incubating with 0.2 ml/well of 5 μg/ml Fc-L10-ShK[1-35] in PBS/BSA for 30′ at room temperature. Fc-L10-ShK[1-35] was aspirated and then the cells were washed one time with PBS/0.5% BSA. Detection antibody (Goat F(ab)2 anti-human IgG-phycoerythrin; Southern Biotech Associates, Birmingham, Ala.) was added to the wells at 5 μg/ml in PBS/0.5% BSA and incubated for 30′ at room temperature. Wash cells once with PBS/0.5% BSA and examine using confocal microscopy (LSM 510 Meta Confocal Microscope; Carl Zeiss AG, Germany). […]

human Kv1.3 [4] = molecular target: T1, human Kv1.3; test: Whole cell immunoassay (ELISA) of binding to fixed HEK 293 cells overexpressing Kv1.3; set-up: expressed in transfected cells
Method: Our peptibody reagent can be a useful and convenient tool for monitoring Kv1.3 channel expression in patients and have utility in diagnostic applications. The procedure shown in FIG. 34A and FIG. 34B follows.
FIG. 34A. A whole cell immunoassay was performed to show binding of intact Fc-L10-ShK[1-35] to Kv1.3 transfected HEK 293 cells (BioFocus plc, Cambridge, UK). Parent HEK 293 cells or HEK Kv1.3 cells were plated at 3×10e4 cells/well in poly-D-Lysine coated ninety-six well plates (#35-4461; Becton-Dickinson, Bedford, Mass.). Cells were fixed with formalin (Sigma HT50-1-1 Formalin solution, diluted 1:1 with PBS/0.5% BSA before use) by removing cell growth medium, adding 0.2 ml/well formalin solution and incubating at room temperature for 25 minutes and then washing one time with 100 μl/well of PBS/0.5% BSA. Wells were blocked by addition of 0.3 ml/well of BSA blocker (50-61-00; KPL 10% BSA Diluent/Blocking Solution, diluted 1:1 with PBS; KPL, Gaithersburg, Md.) followed by incubation at room temperature, with shaking, for 3 hr. Plates were washed 2 times with 1×KP Wash Buffer (50-63-00; KPL). […] Absorbance was read at 450 nm on a Molecular Devices SpectroMax 340 (Sunnyvale, Calif.).
FIG. 34B. […] Absorbances were read at 405 nm after stopping reactions by addition of 0.1 ml/well of 1% SDS.

T1 sequence (P22001 whole entry): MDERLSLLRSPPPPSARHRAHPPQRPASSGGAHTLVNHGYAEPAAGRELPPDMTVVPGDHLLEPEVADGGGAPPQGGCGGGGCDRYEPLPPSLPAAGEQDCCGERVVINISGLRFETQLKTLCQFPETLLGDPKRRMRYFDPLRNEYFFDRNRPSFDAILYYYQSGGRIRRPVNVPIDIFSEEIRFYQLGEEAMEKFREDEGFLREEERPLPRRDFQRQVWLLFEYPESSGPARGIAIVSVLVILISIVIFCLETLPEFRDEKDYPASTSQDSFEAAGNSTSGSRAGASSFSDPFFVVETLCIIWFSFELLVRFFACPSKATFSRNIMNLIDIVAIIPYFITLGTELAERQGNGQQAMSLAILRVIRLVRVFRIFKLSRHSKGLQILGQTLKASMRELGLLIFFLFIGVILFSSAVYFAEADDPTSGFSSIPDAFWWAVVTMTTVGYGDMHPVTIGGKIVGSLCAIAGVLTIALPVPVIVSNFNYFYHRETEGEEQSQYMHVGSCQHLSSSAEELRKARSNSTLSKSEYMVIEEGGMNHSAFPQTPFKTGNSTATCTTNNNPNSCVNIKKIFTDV
T2 sequence (Q09470 whole entry): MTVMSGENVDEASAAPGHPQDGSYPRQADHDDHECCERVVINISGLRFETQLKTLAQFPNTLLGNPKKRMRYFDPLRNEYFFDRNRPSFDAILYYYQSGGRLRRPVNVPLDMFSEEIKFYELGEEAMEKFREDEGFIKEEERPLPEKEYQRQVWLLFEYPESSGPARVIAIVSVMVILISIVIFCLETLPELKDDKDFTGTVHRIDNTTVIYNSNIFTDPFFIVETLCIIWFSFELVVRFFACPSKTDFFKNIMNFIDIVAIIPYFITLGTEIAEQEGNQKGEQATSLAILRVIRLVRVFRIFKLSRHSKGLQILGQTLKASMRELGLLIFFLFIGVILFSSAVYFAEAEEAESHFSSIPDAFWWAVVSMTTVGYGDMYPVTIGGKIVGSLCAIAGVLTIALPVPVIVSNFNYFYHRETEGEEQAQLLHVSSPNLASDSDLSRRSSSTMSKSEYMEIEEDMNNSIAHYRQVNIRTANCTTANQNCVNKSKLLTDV

## Fc-L10-OSK1[E16K,K20D]
Human Kv1.3 [1]
  fold less potent than the synthetic OSK1 toxin peptide: approximately 6 fold
Human Kv1.1
  IC50: > 100 nM

## Fc-L10-ShK[1-35]: Fc region of human IgG1 fused in-frame to a 10 amino acid linker and the Kv1.3 inhibitor peptide ShK[1-35]; peptibody
[2]
  inhibition of T cell proliferation (in words): inhibits T cell proliferation; also recorded: blocked T cell proliferation; also recorded: potently inhibits proliferation of T cells in a dose-dependent manner
CD40L on CD4+ T cells
  block of thapsigargin-induced upregulation of CD40L on T cells (in words): suppressed
IL-2R on CD4+ T cells
  block of thapsigargin-induced upregulation of the IL-2R on T cells (in words): suppressed
Human Kv1.3 [3]
  staining of Kv1.3-transfected HEK 293 cells (in words): stains HEK 293 cells stably transfected with human Kv1.3
Human Kv1.3 [4]
  binding to fixed HEK 293 cells overexpressing Kv1.3 (in words): dose-dependent increase in response; also recorded: high affinity binding to its target
